Experimental data as given in patent publication US11661611.

Key:
Assay in all cases: cell_activity
[1] = tested on: ZFN 59581 (synthetic construct); conditions: indels with partner 59580, 6 ug mRNA, activated T cells; 83 at 2 ug, 72 at 0.5 ug
[2] = tested on: ZFN 59440 (synthetic construct); conditions: indels with partner 59441, 6 ug mRNA, activated T cells; 82 at 2 ug, 59 at 0.5 ug; F6 printed ATCCLAH in Table 1, ATCGLAH in claim
[3] = tested on: ZFN 59580 (synthetic construct); conditions: indels with partner 59581, 6 ug mRNA, activated T cells; 83 at 2 ug, 72 at 0.5 ug
[4] = tested on: ZFN 59489 (synthetic construct); conditions: indels with partner 59488, 6 ug mRNA, activated T cells; 84 at 2 ug, 60 at 0.5 ug
[5] = tested on: ZFN 59557 (synthetic construct); conditions: indels with partner 59558, 6 ug mRNA, activated T cells; 80 at 2 ug, 55 at 0.5 ug
[6] = tested on: ZFN 59558 (synthetic construct); conditions: indels with partner 59557, 6 ug mRNA, activated T cells; 80 at 2 ug, 55 at 0.5 ug
[7] = tested on: ZFN 59488 (synthetic construct); conditions: indels with partner 59489, 6 ug mRNA, activated T cells; 84 at 2 ug, 60 at 0.5 ug
[8] = tested on: ZFN 59441 (synthetic construct); conditions: indels with partner 59440, 6 ug mRNA, activated T cells; 82 at 2 ug, 59 at 0.5 ug

ATAGTGCTGCACAAGGCTGACCACATCC (double strand) [CISH exon 3 site 59581]
activity [1]: 82%

CCAGCAAAGGACGAGGTCTAGAAGGCAG (double strand) [CISH exon 2 site 59440]
activity [2]: 84%

CCGGAAAGGCCAGGATGCGTGGCCTGGA (double strand) [CISH exon 3 site 59580]
activity [3]: 82%

GAGGAGGTGGCAGAGGGTACCCCAGCCC (double strand) [CISH exon 2 site 59489]
activity [4]: 89%

GAGTCCAGACGGAAGCTGGAGTCGGCAT (double strand) [CISH exon 3 site 59557]
activity [5]: 84%

GATGCGTGGCCTGGACAAGCAGTTGGAG (double strand) [CISH exon 3 site 59558]
activity [6]: 84%

GGAAGGCCCCAGCAGGCAAGGGCTGCAT (double strand) [CISH exon 2 site 59488]
activity [7]: 89%

GTGGAGCGGACTGGGCAGCGGCCCCTGT (double strand) [CISH exon 2 site 59441]
activity [8]: 84%
